“Also recorded” adds a separate entry of the source.
Tests used:
[1] = test system: RAJI cells stably expressing GLuc; assay: GLuc cell death assay, RAJI-GLuc target cells
Description: Cells were left unselected or selected with puromycin and expanded.

[2] = test system: HEL cells stably expressing GLuc; assay: GLuc cell death assay, HEL-GLuc target cells
Description: The blood samples to isolate Peripheral blood mononuclear cells (PBMCs) were obtained from healthy de-identified adult donors. PBMC were isolated from buffy coats by Ficoll-Hypaque gradient centrifugation and re-suspended in XVIVO medium (Lonza) supplanted with 10 ng/ml soluble anti-CD3, 10 ng/ml soluble anti-CD28 and 100 IU recombinant human-IL2. […] The PBMC expressing the indicated CARs and uninfected PBMC were co-cultured with HEL-GLuc target cells for 4 h and lysis of target cells measured by the single-step homogenous GLuc assay by injecting 0.5× CTZ assay buffer as described above.
Cells were selected with puromycin and expanded.
Cells were subsequently co-cultured overnight with HEL.92.1.7 cells that had been engineered to express GLuc.

[3] = test system: MPL-expressing HEL.92.1.7 (HEL) cells; assay: Jurkat-NFAT-EGFP reporter assay, co-culture with HEL cells (Table 25); assay type: cell-based, human; conditions: FACS
Description: (§1) Cells were subsequently co-cultured with MPL-expressing HEL.92.1.7 (HEL) cells. […] CAR construct with HEL cells. The experiment was repeated by co-culturing the Jurkat-NFAT-EGFP cells with either RAJI cells, which have weak MPL expression, or with RAJI-MPL cells that were engineered to ectopically express human MPL receptor.

[4] = test system: RAJI-MPL cells; assay: Jurkat-NFAT-EGFP reporter assay, co-culture with RAJI-MPL or RAJI-vector cells (Table 25); assay type: cell-based, human; conditions: RAJI-MPL cells compared with RAJI-vector cells
Description: as §1

[5] = test system: Jurkat cells stably expressing MPL and GLuc; assay: GLuc cell death assay, Jurkat-MPL-GLuc target cells; conditions: T cells, puromycin selected, E:T 10:1, 4 hours
[6] = test system: target cells expressing their respective target antigen; assay: Jurkat-NFAT-GFP assay, co-culture with target cells expressing the respective target antigen (Table 28); conditions: Jurkat-NFAT-GFP cells expressing the CAR; cell line(s) giving greater % GFP positive cells than parental

B1: CD8SP-CD19Bu12-(vL-vH)-Myc-BBz-T2A-PAC(082815-P08): CD19 CAR with scFv from humanized CD19 antibody huCD19-Bu12, 41BB and CD3z (protein)
chain: MALPVTALLLPLALLLHAARPDEIVLTQSPATLSLSPGERATLSCSASSSVSYMHWYQQKPGQAPRLLIYDTSKLASGIPARFSGSGSGTDFTLTISSLEPEDVAVYYCFQGSVYPFTFGQGTKLEIKRGGGGSGGGGSGGGGSQVQLQESGPGLVKPSQTLSLTCTVSGGSISTSGMGVGWIRQHPGKGLEWIGHIWWDDDKRYNPALKSRVTISVDTSKNQFSLKLSSVTAADTAVYYCARMELWSYYFDYWGQGTLVTVSSTREQKLISEEDLAKPTTTPAPRPPTPAPTIASQPLSLRPEACRPAAGGAVHTRGLDFACDIYIWAPLAGTCGVLLLSLVITLYCKRGRKKLLYIFKQPFMRPVQTTQEEDGCSCRFPEEEEGGCELRVKFSRSADAPAYQQGQNQLYNELNLGRREEYDVLDKRRGRDPEMGGKPRRKNPQEGLYNELQKDKMAEAYSEIGMKGERRRGKGHDGLYQGLSTATKDTYDALHMQALPPRSSGSGEGRGSLLTCGDVEENPGPHMTEYKPTVRLATRDDVPRAVRTLAAAFADYPATRHTVDPDRHIERVTELQELFLTRVGLDIGKVWVADDGAAVAVWTTPESVEAGAVFAEIGPRMAELSGSRLAAQQQMEGLLAPHRPKEPAWFLATVGVSPDHQGKGLGSAVVLPGVEAAERAGVPAFLETSAPRNLPFYERLGFTVTADVEVPEGPRTWCMTRKPGA
modifications: listed as DNA
- cell death (increase in Gluc activity) ([1]; RAJI-pLenti-Gluc cells incubated with the CAR-T cells): significant induction of cell death
- GLuc activity (lysis of target cells) ([1]; T cells with or without puromycin selection, E:T 10:1, 96 hours): increase in GLuc activity

B2: CD8SP-175-(vL-vH)-Myc-CD28z-T2A-PAC(031615-Q04): CAR construct targeting MPL, 175 scFv, CD28 costimulatory domain (protein)
chain: MALPVTALLLPLALLLHAARPDQIVLTQSPAIMSASPGEKVTISCSASSSVSYMYWYQQKPGSSPKPWIYRTSNLASGVPARFSGSGSGTSYSLTISNMEAEDAAAYYCQQYHSYPTTFGGGTKLEVKGGGGSGGGGSGGGGSEVQLVESGGGLVQPKGSLKLSCAASGFSFNTYAMNWVRQAPGKGLEWIAHIRSKSNNFATYYADSVKDRFSISRDASENILFLQMNNLKTEDTAMYYCVRQGGDFPMDYWGQGTSVTVSSTREQKLISEEDLKIEVMYPPPYLDNEKSNGTIIHVKGKHLCPSPLFPGPSKPFWVLVVVGGVLACYSLLVTVAFIIFWVRSKRSRLLHSDYMNMTPRRPGPTRKHYQPYAPPRDFAAYRSRVKFSRSADAPAYQQGQNQLYNELNLGRREEYDVLDKRRGRDPEMGGKPRRKNPQEGLYNELQKDKMAEAYSEIGMKGERRRGKGHDGLYQGLSTATKDTYDALHMQALPPRSSGSGEGRGSLLTCGDVEENPGPHMTEYKPTVRLATRDDVPRAVRTLAAAFADYPATRHTVDPDRHIERVTELQELFLTRVGLDIGKVWVADDGAAVAVWTTPESVEAGAVFAEIGPRMAELSGSRLAAQQQMEGLLAPHRPKEPAWFLATVGVSPDHQGKGLGSAVVLPGVEAAERAGVPAFLETSAPRNLPFYERLGFTVTADVEVPEGPRTWCMTRKPGA
modifications: listed as DNA
notes: CAR construct targeting MPL, 175 scFv, CD28 costimulatory domain
- killing of HEL-GLuc cells ([2]; CAR-expressing PBMC, 4 h, versus uninfected PBMC): increased killing
- GLuc activity (lysis of target cells) ([2]; T cells, puromycin selected, E:T 10:1, 4 hours): stronger
- EGFP expression (NFAT-EGFP reporter) [3]: strongest
- EGFP expression (NFAT-EGFP reporter) [4]: strongest
- GLuc activity (lysis of target cells) [5]: stronger

B3: CD8SP-CD324-hSC10-17-(vL-vH)-Myc-BBz-T2A-PAC(052516-A07)[SEQ ID NO: 1555] (protein)
chain: MALPVTALLLPLALLLHAARPDVVMTQSPLSLPVTLGQPASISCRSSQSIVHSDGNTYLEWYQQRPGQSPRRLIYKVSNRFSGVPDRFSGSGSGTDFTLKISRVEAEDVGVYYCFQGSHAPWTFGGGTKVEIKGGGGSGGGGSGGGGSEVQLVESGGGLVQPGGSLRLSCAASGFTFSSYGMHWVRQAPGKGLEWVAYITTRSSTIYYADSVKGRFTISRDNAKNSLYLQMNSLRAEDTAVYYCTREPLTGYYAMDYWGQGTSVTVSSTREQKLISEEDLAKPTTTPAPRPPTPAPTIASQPLSLRPEACRPAAGGAVHTRGLDFACDIYIWAPLAGTCGVLLLSLVITLYCKRGRKKLLYIFKQPFMRPVQTTQEEDGCSCRFPEEEEGGCELRVKFSRSADAPAYQQGQNQLYNELNLGRREEYDVLDKRRGRDPEMGGKPRRKNPQEGLYNELQKDKMAEAYSEIGMKGERRRGKGHDGLYQGLSTATKDTYDALHMQALPPRSSGSGEGRGSLLTCGDVEENPGPHMTEYKPTVRLATRDDVPRAVRTLAAAFADYPATRHTVDPDRHIERVTELQELFLTRVGLDIGKVWVADDGAAVAVWTTPESVEAGAVFAEIGPRMAELSGSRLAAQQQMEGLLAPHRPKEPAWFLATVGVSPDHQGKGLGSAVVLPGVEAAERAGVPAFLETSAPRNLPFYERLGFTVTADVEVPEGPRTWCMTRKPGA
modifications: listed as DNA
- Positive Cell Line on co-culture assay [6]: MDAMB-231

B4: CD8SP-DLL3-hSC16-13-(vL-vH)-Myc-BBz-T2A-PAC(052516-D07)[SEQ ID NO: 1584] (protein)
chain: MALPVTALLLPLALLLHAARPDIQMTQSPSSLSASVGDRVTITCSASSSVSYMYWYQQKPGKAPKLLIYLTSNLASGVPSRFSGSGSGTDFTLTISSLQPEDFATYYCQQWRSNPFTFGQGTKLEIKRGGGGSGGGGSGGGGSQITLKESGPTLVKPTQTLTLTCTFSGFSLSTSGMGVGWIRQPPGKALEWLAHIWWDDVKRYSPSLKSRLTITKDTSKNQVVLTMTNMDPVDTATYYCARIVSFDNDVVSAMDYWGQGTLVTVSSTREQKLISEEDLAKPTTTPAPRPPTPAPTIASQPLSLRPEACRPAAGGAVHTRGLDFACDIYIWAPLAGTCGVLLLSLVITLYCKRGRKKLLYIFKQPFMRPVQTTQEEDGCSCRFPEEEEGGCELRVKFSRSADAPAYQQGQNQLYNELNLGRREEYDVLDKRRGRDPEMGGKPRRKNPQEGLYNELQKDKMAEAYSEIGMKGERRRGKGHDGLYQGLSTATKDTYDALHMQALPPRSSGSGEGRGSLLTCGDVEENPGPHMTEYKPTVRLATRDDVPRAVRTLAAAFADYPATRHTVDPDRHIERVTELQELFLTRVGLDIGKVWVADDGAAVAVWTTPESVEAGAVFAEIGPRMAELSGSRLAAQQQMEGLLAPHRPKEPAWFLATVGVSPDHQGKGLGSAVVLPGVEAAERAGVPAFLETSAPRNLPFYERLGFTVTADVEVPEGPRTWCMTRKPGA
modifications: listed as DNA
- Positive Cell Line on co-culture assay [6]: LAN5, SKMEL31,; also recorded: SKMEL317
